B1: FLAG-GST-IKZF1 (wild type) [not stated] / biotinylated CRBN (wild type) [modified: biotin (added by BirA during cell-free synthesis); biotin (added by BirA during cell-free synthesis)] [human] (parent)
chain 1: MDADEGQDMSQVSGKESPPVSDTPDEGDEPMPIPEDLSTTSGGQQSSKSDRVVASNVKVETQSDEENGRACEMNGEECAEDLRMLDASGEKMNGSHRDQGSSALSGVGGIRLPNGKLKCDICGIICIGPNVLMVHKRSHTGERPFQCNQCGASFTQKGNLLRHIKLHSGEKPFKCHLCNYACRRRDALTGHLRTHSVGKPHKCGYCGRSYKQRSSLEEHKERCHNYLESMGLPGTLYPVIKEETNHSEMAEDLCKIGSERSLVLDRLASNVAKRKSSMPQKFLGDKGLSDTPYDSSASYEKENEMMKSHVMDQAINNAINYLGAESLRPLVQTPPGGSEVVPVISPMYQLHKPLAEGTPRSNHSAQDSAVENLLLLSKAKLVPSEREASPSNSCQDSTDTESNNEEQRSGLIYLTNHIAPHARNGLSLKEEHRAYDLLRAASENSQDALRVVSTSGEQMKVYKCEHCRVLFLDHVMYTIHMGCHGFRDPFECNMCGYHSQDRYEFSSHITRGEHRFHMS
chain 2: MAGEGDQQDAAHNMGNHLPLLPAESEEEDEMEVEDQDSKEAKKPNIINFDTSLPTSHTYLGADMEEFHGRTLHDDDSCQVIPVLPQVMMILIPGQTLPLQLFHPQEVSMVRNLIQKDRTFAVLAYSNVQEREAQFGTTAEIYAYREEQDFGIEIVKVKAIGRQRFKVLELRTQSDGIQQAKVQILPECVLPSTMSAVQLESLNKCQIFPSKPVSREDQCSYKWWQKYQKRKFHCANLTSWPRWLYSLYDAETLMDRIKKQLREWDENLKDDSLPSNPIDFSYRVAACLPIDDVLRIQLLKIGSAIQRLRCELDIMNKCTSLCCKQCQETEITTKNEIFSLSLCGPMAAYVNPHGYVHETLTVYKACNLNLIGRPSTEHSWFPGYAWTVAQCKICASHIGWKFTATKKDMSPQKFWGLTRSALLPTIPDTEDEISPDKVILCL
B2: FLAG-GST-SALL4 (wild type) [human] / biotinylated CRBN (wild type) [modified: biotin (added by BirA during cell-free synthesis); biotin (added by BirA during cell-free synthesis)] [human] (parent)
chain 1: MSRRKQAKPQHINSEEDQGEQQPQQQTPEFADAAPAAPAAGELGAPVNHPGNDEVASEDEATVKRLRREETHVCEKCCAEFFSISEFLEHKKNCTKNPPVLIMNDSEGPVPSEDFSGAVLSHQPTSPGSKDCHRENGGSSEDMKEKPDAESVVYLKTETALPPTPQDISYLAKGKVANTNVTLQALRGTKVAVNQRSADALPAPVPGANSIPWVLEQILCLQQQQLQQIQLTEQIRIQVNMWASHALHSSGAGADTLKTLGSHMSQQVSAAVALLSQKAGSQGLSLDALKQAKLPHANIPSATSSLSPGLAPFTLKPDGTRVLPNVMSRLPSALLPQAPGSVLFQSPFSTVALDTSKKGKGKPPNISAVDVKPKDEAALYKHKCKYCSKVFGTDSSLQIHLRSHTGERPFVCSVCGHRFTTKGNLKVHFHRHPQVKANPQLFAEFQDKVAAGNGIPYALSVPDPIDEPSLSLDSKPVLVTTSVGLPQNLSSGTNPKDLTGGSLPGDLQPGPSPESEGGPTLPGVGPNYNSPRAGGFQGSGTPEPGSETLKLQQLVENIDKATTDPNECLICHRVLSCQSSLKMHYRTHTGERPFQCKICGRAFSTKGNLKTHLGVHRTNTSIKTQHSCPICQKKFTNAVMLQQHIRMHMGGQIPNTPLPENPCDFTGSEPMTVGENGSTGAICHDDVIESIDVEEVSSQEAPSSSSKVPTPLPSIHSASPTLGFAMMASLDAPGKVGPAPFNLQRQGSRENGSVESDGLTNDSSSLMGDQEYQSRSPDILETTSFQALSPANSQAESIKSKSPDAGSKAESSENSRTEMEGRSSLPSTFIRAPPTYVKVEVPGTFVGPSTLSPGMTPLLAAQPRRQAKQHGCTRCGKNFSSASALQIHERTHTGEKPFVCNICGRAFTTKGNLKVHYMTHGANNNSARRGRKLAIENTMALLGTDGKRVSEIFPKEILAPSVNVDPVVWNQYTSMLNGGLAVKTNEISVIQSGGVPTLPVSLGATSVVNNATVSKMDGSQSGISADVEKPSATDGVPKHQFPHFLEENKIAVS
chain 2: B1 chain 2

Variants of: B1
Test: AlphaScreen (AS-based interaction assay)
Settings: with biotinylated CRBN (wild type) [modified: biotin (added by BirA during cell-free synthesis), (S)-5HT, last (highest) point of the titration, Log[(S)-5HT (µM)] about 2.3, signal relative to DMSO = 1, read off a plot

Variant | response (Relative AS signal)
chain 1 Q146V | 25
chain 1 Q146V S153R | 26

Same assay, conditions: with biotinylated CRBN (wild type) [modified: biotin (added by BirA during cell-free synthesis), (S)-thalidomide, last (highest) point of the titration, Log[(S)-Thal (µM)] about 2.3, signal relative to DMSO = 1, read off a plot

Variant | response (Relative AS signal)
chain 1 Q146V | 28
chain 1 Q146V S153R | 14

Variants of: B2
Test: AlphaScreen (AS-based interaction assay)
Settings: with biotinylated CRBN (wild type) [modified: biotin (added by BirA during cell-free synthesis), 5HP, last (highest) point of the titration, Log[5HP (µM)] = 2, signal relative to DMSO = 1, read off a plot

response (Relative AS signal) | Variant
14 | chain 1 V411L
43 | chain 1 V411T

More lines, now with the values behind:

Variant | response (Relative AS signal)
chain 1 V411A | 26
chain 1 V411I | 51

Same assay, conditions: with biotinylated CRBN (wild type) [modified: biotin (added by BirA during cell-free synthesis), (S)-5HT, last (highest) point of the titration, Log[(S)-5HT (µM)] = 2, signal relative to DMSO = 1, read off a plot

response (Relative AS signal) | Variant
14 | chain 1 V411L
47 | chain 1 V411T

The remaining lines, values behind:

Variant | response (Relative AS signal)
chain 1 V411A | 29
chain 1 V411I | 63

Same assay, conditions: with biotinylated CRBN (wild type) [modified: biotin (added by BirA during cell-free synthesis), pomalidomide, last (highest) point of the titration, Log[Pom (µM)] = 2, signal relative to DMSO = 1, read off a plot

response (Relative AS signal) | Variant
100 | chain 1 V411Q
8 | chain 1 V411K
37 | chain 1 V411R

Further lines, the variant ahead of its results:

Variant | response (Relative AS signal)
chain 1 V411A | 52
chain 1 V411I | 78
chain 1 V411H | 22

Same assay, conditions: with biotinylated CRBN (wild type) [modified: biotin (added by BirA during cell-free synthesis), (S)-thalidomide, last (highest) point of the titration, Log[(S)-Thal (µM)] = 2, signal relative to DMSO = 1, read off a plot

response (Relative AS signal) | Variant
100 | chain 1 V411Q
7 | chain 1 V411K
14 | chain 1 V411R

The remaining lines, values behind:

Variant | response (Relative AS signal)
chain 1 V411I | 75
chain 1 V411H | 20

Same assay, conditions: with biotinylated CRBN (wild type) [modified: biotin (added by BirA during cell-free synthesis), (S)-5HT, last (highest) point of the titration, Log[(S)-5HT (µM)] about 2.3, signal relative to DMSO = 1, read off a plot

Variant | response (Relative AS signal)
chain 1 V411Q | 4.5
chain 1 V411Q R418S | 4.5

Same assay, conditions: with biotinylated CRBN (wild type) [modified: biotin (added by BirA during cell-free synthesis), (S)-thalidomide, last (highest) point of the titration, Log[(S)-Thal (µM)] about 2.3, signal relative to DMSO = 1, read off a plot

Variant | response (Relative AS signal)
chain 1 V411Q | 66
chain 1 V411Q R418S | 62
